In paper PMC12746103, “Structural insights into the exchange mechanism of a replicative DNA polymerase” (Nucleic Acids Research, 2025):
Where a chain is given by its changes, count along the chain named. In names and notes the source's numbering stands. Several values for one entry are separate records, joined by “and”; a condition that tells them apart may be missing. Equal entries are not always repeated.

T1: dimer-interface mutant gp43(exo-) DNA polymerase;gp45 sliding clamp (wt) (T4 bacteriophage;T4 bacteriophage, UniProt P04415;P04525 1-898;1-228, D219A;D75R;Q430E;K432E|)
T1 sequence 1: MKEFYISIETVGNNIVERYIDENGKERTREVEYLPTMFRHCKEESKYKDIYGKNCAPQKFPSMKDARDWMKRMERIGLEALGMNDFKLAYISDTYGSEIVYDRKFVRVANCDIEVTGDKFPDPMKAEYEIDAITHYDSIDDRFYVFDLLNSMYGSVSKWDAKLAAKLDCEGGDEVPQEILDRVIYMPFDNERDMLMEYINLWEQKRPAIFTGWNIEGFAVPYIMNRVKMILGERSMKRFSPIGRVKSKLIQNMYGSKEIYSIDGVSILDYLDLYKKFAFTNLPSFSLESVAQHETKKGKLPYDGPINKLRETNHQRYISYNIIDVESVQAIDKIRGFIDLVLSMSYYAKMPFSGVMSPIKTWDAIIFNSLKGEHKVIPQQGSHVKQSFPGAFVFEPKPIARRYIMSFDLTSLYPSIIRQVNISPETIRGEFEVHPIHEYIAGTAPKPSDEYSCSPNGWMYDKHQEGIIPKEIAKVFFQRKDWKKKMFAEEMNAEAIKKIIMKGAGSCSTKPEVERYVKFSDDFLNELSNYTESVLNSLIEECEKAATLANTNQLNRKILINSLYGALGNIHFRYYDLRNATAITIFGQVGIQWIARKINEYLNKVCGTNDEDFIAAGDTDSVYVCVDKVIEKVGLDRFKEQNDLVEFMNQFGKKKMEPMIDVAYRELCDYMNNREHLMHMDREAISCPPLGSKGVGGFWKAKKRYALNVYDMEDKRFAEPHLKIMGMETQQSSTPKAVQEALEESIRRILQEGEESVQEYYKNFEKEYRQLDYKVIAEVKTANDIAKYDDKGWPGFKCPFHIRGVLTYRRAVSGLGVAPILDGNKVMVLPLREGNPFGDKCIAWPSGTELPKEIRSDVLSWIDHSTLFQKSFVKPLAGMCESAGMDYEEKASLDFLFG
T1 sequence 2: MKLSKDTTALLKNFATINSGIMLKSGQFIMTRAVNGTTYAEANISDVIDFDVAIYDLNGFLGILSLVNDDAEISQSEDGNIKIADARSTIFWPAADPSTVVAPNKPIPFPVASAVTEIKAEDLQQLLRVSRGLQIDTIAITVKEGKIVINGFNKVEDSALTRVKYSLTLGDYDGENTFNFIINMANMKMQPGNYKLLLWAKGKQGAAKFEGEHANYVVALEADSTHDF

T2: gp43(exo-) DNA polymerase;gp45 sliding clamp (wt) (T4 bacteriophage;T4 bacteriophage, UniProt P04415;P04525 1-898;1-228, D219A|)
T2 sequence 1: T1 sequence 1 with R75D, E430Q, E432K
T2 sequence 2: T1 sequence 2

B1: T4 bacteriophage gp43(exo-) exonuclease-deficient DNA polymerase (D219A) (enzyme, bacteriophage T4)
chain: T1 sequence 1 with R75D, E430Q, E432K
notes: DNA polymerase gp43 of bacteriophage T4 with the exonuclease-deficient mutation D219A; also called gp43 polymerase; T4 polymerase; source: E. coli BL21(DE3), purified (chitin resin with intein-mediated cleavage, heparin)
B2: T4 bacteriophage gp45 sliding clamp (natural protein, bacteriophage T4)
chain: T1 sequence 2
notes: sliding clamp gp45 of bacteriophage T4, wild type, homotrimeric ring; also called wt-gp45 clamp; gp45 clamp; source: E. coli BL21(DE3), pET26b, purified (hydroxyapatite, anion exchange)
B3: dimer-interface mutant gp43(exo-) polymerase (D75R, Q430E, K432E in gp43(exo-) D219A) (enzyme, bacteriophage T4)
chain: T1 sequence 1
notes: DNA polymerase gp43 of bacteriophage T4 with D219A (exo-) and the three dimer-interface mutations D75R, Q430E and K432E; PDB 9EA3 holds this mutant; the other three entries hold its parent m1; also called dimer-interface mutant polymerase; mutant polymerase; source: E. coli BL21(DE3), purified (chitin resin with intein-mediated cleavage, heparin)
B4: P/T DNA (25-nt primer / 38-nt template) (dsDNA)
DNA 1: CTGCACGAATTAAGCAATTCGTAATCATGGTCATAGCT
DNA 2: AGCTATGACCATGATTACGAATTGC
modifications: primer 3'-terminal dideoxycytidine (ddC)

How the values were obtained:
[1] = target: the molecule itself; test: cryo-EM structure; 10 μM gp45 clamp mixed with 5 μM primer/template DNA (20 mM HEPES pH 7.5, 150 mM KOAc, 10 mM MgCl2, 0.5 mM ddTTP, 2 mM DTT; 10 min, 30°C), then 6 μM gp43 polymerase added (10 min room temperature, 1 h on ice); no clamp loader
[2] = target: B2; test: as above; details: both partners purified
[3] = target: B1; test: as above; details: both partners purified
[4] = target: B3; test: as above; details: both partners purified
[5] = target: T1, dimer-interface mutant gp43(exo-) DNA …; test: cryo-EM; ddTTP; one-polymerase holoenzyme, 4.0 A; cryo-EM assembly: 1.2 polymerase : 2 clamp : 1 DNA (molar) with ddTTP; proteins purified in HEPES pH 7.8 buffers; assembly salt and temperature not given in material; details: protein: recombinant;recombinant; tags: self-cleaving intein chitin tag, removed;; copies: 1;3; primer-template; 13 nt 5' template overhang, 25 bp duplex
[6] = target: T2, gp43(exo-) DNA polymerase;gp45 sliding …; test: cryo-EM; ddTTP; two-polymerase complex state 1; DNA at right polymerase, primer end outside both active sites; cryo-EM assembly: 1.2 polymerase : 2 clamp : 1 DNA (molar) with ddTTP; proteins purified in HEPES pH 7.8 buffers; assembly salt and temperature not given in material; details: protein: recombinant;recombinant; chain copies: 2;3; primer-template; 13 nt 5' template overhang, 25 bp duplex

With B1 the “stoichiometry N” value [1] was 2 and the “stoichiometry N” value [2] was 1 polymerase per clamp ring and 2 polymerases per clamp ring.

B2: binds [3]; binds [4].

B3 was tested, and the “stoichiometry N” value [2] was 1 polymerase per clamp ring.

B4: binds [5]; binds [6].
